Data published in paper doi:10.1101/452920.
Substitutions are numbered along the chain they refer to. Read-outs that look alike come from different tables or passages of the source.

Assays:
Test in all cases: fluorescence anisotropy
[1] = biological target: T1, MRPP1 (Δ39);MRPP2;MRPP3 (Δ95) (human;human;human, UniProt Q7L0Y3;Q99714;O15091 40-403;1-261;96-583, del1-39||del1-95)
T1 sequence 1: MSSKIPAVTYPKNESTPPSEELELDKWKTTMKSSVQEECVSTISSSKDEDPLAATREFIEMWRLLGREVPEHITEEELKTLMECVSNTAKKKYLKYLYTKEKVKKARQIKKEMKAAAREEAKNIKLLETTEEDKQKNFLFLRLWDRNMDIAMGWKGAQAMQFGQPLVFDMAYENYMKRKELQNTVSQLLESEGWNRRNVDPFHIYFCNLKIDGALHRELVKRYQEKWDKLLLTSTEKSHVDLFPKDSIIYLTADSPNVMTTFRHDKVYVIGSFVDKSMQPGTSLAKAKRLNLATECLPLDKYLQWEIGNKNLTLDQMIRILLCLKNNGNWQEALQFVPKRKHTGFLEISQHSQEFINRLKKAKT
T1 sequence 2: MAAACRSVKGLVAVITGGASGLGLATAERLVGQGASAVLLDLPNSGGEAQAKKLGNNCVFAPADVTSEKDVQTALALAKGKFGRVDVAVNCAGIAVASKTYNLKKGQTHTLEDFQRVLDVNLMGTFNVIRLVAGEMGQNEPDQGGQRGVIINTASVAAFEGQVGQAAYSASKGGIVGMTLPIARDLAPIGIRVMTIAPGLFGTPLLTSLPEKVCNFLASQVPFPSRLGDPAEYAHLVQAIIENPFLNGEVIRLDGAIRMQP
T1 sequence 3: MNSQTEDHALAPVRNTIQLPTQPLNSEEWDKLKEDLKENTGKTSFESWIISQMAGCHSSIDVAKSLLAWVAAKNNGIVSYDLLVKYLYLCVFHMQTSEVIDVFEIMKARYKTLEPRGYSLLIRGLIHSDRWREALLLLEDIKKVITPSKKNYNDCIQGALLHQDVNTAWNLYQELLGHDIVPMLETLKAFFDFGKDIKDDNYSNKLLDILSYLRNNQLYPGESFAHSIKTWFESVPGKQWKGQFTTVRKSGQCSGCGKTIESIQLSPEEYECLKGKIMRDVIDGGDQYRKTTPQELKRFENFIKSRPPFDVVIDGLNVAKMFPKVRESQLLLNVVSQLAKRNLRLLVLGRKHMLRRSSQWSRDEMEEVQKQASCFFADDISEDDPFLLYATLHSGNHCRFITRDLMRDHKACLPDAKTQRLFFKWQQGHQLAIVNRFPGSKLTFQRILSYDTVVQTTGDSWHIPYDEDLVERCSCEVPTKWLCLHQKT

[2] = biological target: T2, MRPP1 (Δ39);MRPP2 (human;human, UniProt Q7L0Y3;Q99714 40-403;1-261, del1-39|)
T2 sequence 1: T1 sequence 1
T2 sequence 2: T1 sequence 2

[3] = biological target: T3, MRPP3 (Δ95) (human, UniProt O15091 96-583, del1-95)
T3 sequence: T1 sequence 3

[4] = biological target: T1, MRPP1 (Δ39);MRPP2;MRPP3 (Δ95); remark: listed apart in the source
[5] = biological target: T2, MRPP1 (Δ39);MRPP2; remark: listed apart in the source

B1: (mt)pre-tRNAVal7:0 (structured_RNA)
RNA: GACGAACCAGAGUGUAGCUUAACACAAAGCACCCAACUUACACUUAGGAGAUUUCAACUUAACUUGACCGCUCUGA
binding result [1]: binds
binding result [2]: binds
Kd [3]: 21.7 ± 2.6 µM

B2: (mt)pre-tRNAVal/C9 (structured_RNA)
RNA: B1 RNA with A16C
binding result [4]: binds
binding result [5]: binds
